The source of these data is article PMC4201290, “Wilms tumor protein recognizes 5-carboxylcytosine within a specific DNA sequence”.

For the data set, the target named is Egr1/Zif268 ZnF1-3 (Homo sapiens, UniProt P18146). Description: X-ray crystallography; Zn2+; FP: 5 nM FAM-dsDNA, 300 mM NaCl (200 mM in Fig 4E), 20 mM Tris-HCl pH 7.5, 5% glycerol, 0.5 mM TCEP, 25 C, 10 min.

B1: crystal oligo Egr1 5mC/5mC (dsDNA)
DNA 1: AGCGTGGGCGT
DNA 2: TACGCCCACGC
modifications: 5mC in both strands of the 3' GCG
In the case of B1, the binding result was “binds”.

B2: crystal oligo Egr1 5hmC/5hmC (dsDNA)
DNA 1: AGCGTGGGCGT
DNA 2: TACGCCCACGC
modifications: 5hmC in both strands of the 3' GCG
In the case of B2, the binding result is reported as “binds”.

B3: crystal oligo Egr1 5fC/5fC (dsDNA)
DNA 1: AGCGTGGGCGT
DNA 2: TACGCCCACGC
modifications: 5fC in both strands of the 3' GCG
Consider B3, for which the binding result is “binds”.
